In patent US20220332804A1 (CSL INNOVATION, published 2022):
Changes are numbered by the printed parent chain.

Key:
Experiment in all cases: SPR, antibody captured, C2 as analyte;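 also: biacore at 37 °C, anti-C2 mAbs held by immobilised goat anti-human IgG, C2 alanine or serine mutants injected, double-referenced sensorgrams fitted to a 1:1 kinetic or steady-state model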
human C2 R519A = target: T1, human C2 R519A (human, UniProt P06681 21-752)
T1 sequence: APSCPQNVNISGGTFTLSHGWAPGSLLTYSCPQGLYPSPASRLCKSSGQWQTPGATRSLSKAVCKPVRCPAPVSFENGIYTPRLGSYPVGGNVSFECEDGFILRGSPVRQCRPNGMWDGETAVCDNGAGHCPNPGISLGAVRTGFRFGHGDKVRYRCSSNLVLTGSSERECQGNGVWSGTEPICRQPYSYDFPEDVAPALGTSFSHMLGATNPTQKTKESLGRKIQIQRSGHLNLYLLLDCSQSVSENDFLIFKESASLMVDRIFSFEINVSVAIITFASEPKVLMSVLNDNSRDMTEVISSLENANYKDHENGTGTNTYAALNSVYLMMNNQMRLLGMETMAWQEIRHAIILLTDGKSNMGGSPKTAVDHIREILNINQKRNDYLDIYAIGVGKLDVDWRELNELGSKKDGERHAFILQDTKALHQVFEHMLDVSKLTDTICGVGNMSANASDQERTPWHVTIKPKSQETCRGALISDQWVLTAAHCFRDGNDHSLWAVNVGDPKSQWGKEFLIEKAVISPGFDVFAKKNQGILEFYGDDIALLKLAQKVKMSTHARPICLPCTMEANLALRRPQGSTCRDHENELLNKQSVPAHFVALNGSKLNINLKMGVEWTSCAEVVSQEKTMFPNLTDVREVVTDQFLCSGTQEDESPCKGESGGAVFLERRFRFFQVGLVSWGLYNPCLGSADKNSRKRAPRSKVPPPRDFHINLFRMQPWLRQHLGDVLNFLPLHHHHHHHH

human C2 F437A = target: T2, human C2 F437A (human, UniProt P06681 21-752)
T2 sequence: T1 sequence with F417A, A499R

human C2 F689A = target: T3, human C2 F689A (human, UniProt P06681 21-752)
T3 sequence: T1 sequence with A499R, F669A

human C2 H446A = target: T4, human C2 H446A (human, UniProt P06681 21-752)
T4 sequence: T1 sequence with H426A, A499R

B1: RF16-242 (antibody, human IgG4 S228P, lambda, V domains shown)
VH: EVQLLQSGAEVKKPGESLKISCKGSGYSFTSYWIGWVRQMPGKGLEWMGIIYPGDSDTRYSPSFQGQVTISADKSISTAYLQWSSLKASDTAMYYCARRGHYGDYFDYWGQGTLVTVSS
VL: SYELTQPPSVSVSPGQTARITCSGDALPKKYAYWYHQKSGQAPVLVIYEDRRRPSEIPERFSGSSSGTMATLTITGAQVEDEGVYFCYSRDRAGNQRVFGGGTQLTVLG
notes: pH-dependent anti-C2 antibody from a phage display library
Human C2 R519A
  Kd: 7.6 nM
Human C2 F437A
  Kd: 107 nM
Human C2 F689A
  Kd: 6.3 nM
Human C2 H446A
  Kd: 16.1 nM
